Experimental data: US20220387417A1, “Pharmaceutical Combination and Use Thereof” (CSTONE PHARMACEUTICALS (SUZHOU) CO., LTD., priority 2019, published 2022)

Legend:
[1] = test system: subcutaneous MC38-hPD-L1 transplanted tumor; assay: Antibody 2E5 monotherapy or in combination with Lenvatinib mesylate on B-hPD-1 humanized mouse MC38-hPD-L1 colon cancer model: tumor volume, tumor weight, TGI, synergy score; type: in vivo; settings: for Tumor volume (mm^3)/Mean ± SEM Day 17: 17th day after the start of treatment
Procedure: Synergy score was calculated using the following formula described in Clarke R. Issues in experimental design and endpoint analysis in the study of experimental cytotoxic agents in vivo in breast cancer and other models[J]. Breast Cancer Research & Treatment, 1997, 46(2-3):255-278, which is incorporated by reference in its entirety:
Synergy score=((A/C)×(B/C))/(AB/C);
where A is RTV value of drug A; B is RTV value of drug B; C is RTV value of vehicle control; AB is RTV value of combination treatment with A and B respectively. • Synergy score>1 represents synergistic; • Synergy score=1 represents additive; • Synergy score<1 represents antagonistic.
where V0 and Vt are the average tumor volume at the start of treatment (day 0) and the average tumor volume on a certain time point (day t).
Mouse colon cancer cells MC38 were purchased from Shun Ran (Shanghai) Biotechnology Co., Ltd., and the cells were cultured in a 37° C., 5% CO2 incubator supplemented with Dulbecco's Modified Eagle's medium containing 10% inactivated fetal bovine serum. MC38 cells were genetically modified to overexpress human PD-L1 and knock out murine PD-L1, the modified cells were named as MC38-hPD-L1 cells.
(§1) MC38-hPD-L1 tumor cells were resuspended in 1×PBS to a concentration of 5×10^5 cells per 0.1 mL. Each of the B-hPD-1 humanized mice was subcutaneously inoculated at the right lateral thorax region with 0.1 mL of the cell suspension. When the average tumor volume reached about 77 mm^3, the mice with moderate tumor volume were selected and randomly divided into 6 groups according to tumor volume, with 10 mice in each group, and the treatment was initiated on the same day.
Tumor volume was measured 2-3 times a week in two dimensions using a caliper, and the volume was expressed in mm^3 using the formula: V=0.5 a×b^2 where a and b were the long and short diameters of the tumor, respectively.
At the termination of the experiment, the animals were photographed to record the tumor bearing state after euthanasia, and the tumors of the mice were weighed and photographed.
TGITV(%)=[1−(Ti−T0)/(Vi−V0)]×100%.
Ti: tumor volume of the treatment group at day i following treatment; T0: tumor volume of the treatment group at day 0 following treatment; Vi: tumor volume of the control group at day i following treatment; V0: tumor volume of the control group at day 0 following treatment.
At the termination of the experiment, the animals were euthanized, the tumors were separated and weighed, and the difference of tumor weight between each group was calculated. Tumor weight inhibition (TGITW) was calculated by the formula:
TGITW (%)=(WC−WT)/[…]×100%; where We means tumor weight of control group, WT means tumor weight of treatment group.
(§2) The original data measured and observed must be recorded. The original data was analyzed and the results were expressed by mean and standard error (Mean±SEM). The data of body weight, tumor volume and tumor weight was statistically analyzed using independent-samples t-test. All data were analyzed using SPSS, P<0.05 is considered to be statistically significant.

[2] = Body weight of B-hPD-1 humanized mice bearing MC38-hPD-L1 tumors, Embodiment 2 (antibody 2E5 / Lenvatinib mesylate); type: in vivo, Mus musculus; settings: for Weight (g)/Mean ± SEM Day 17: 17th day after the start of treatment; for Weight (g) Changes: Day 17 vs Day 0
Procedure: as §1
Animals were weighed 2-3 times a week before tumor inoculation, during animal grouping and the treatment, and before the euthanasia.
as §2

[3] = Antibody 2E5 1 mg/kg i.p., Lenvatinib mesylate 1 mg/kg p.o. QD (G2, G4, G5)
[4] = Antibody 2E5 2 mg/kg i.p., Lenvatinib mesylate 1 mg/kg p.o. QD (G3, G6)
[5] = Antibody 2E5 1 mg/kg, Lenvatinib mesylate 1 mg/kg (G2, G4, G5)
[6] = Antibody 2E5 2 mg/kg, Lenvatinib mesylate 1 mg/kg (G3, G6)

B1: Antibody 2E5: anti-PD-1 antibody (antibody N), heavy chain variable SEQ ID NO: 30, light chain variable SEQ ID NO: 31, human IgG4 constant region (antibody, V domains shown)
VH: QVQLVQSGAEVKKPGSSVKVSCKASGFTFTTYYISWVRQAPGQGLEYLGYINMGSGGTNYNEKFKGRVTITADKSTSTAYMELSSLRSEDTAVYYCAIIGYFDYWGQGTMVTVSS
VL: DVVMTQSPLSLPVTLGQPASISCRSSQSLLDSDGGTYLYWFQQRPGQSPRRLIYLVSTLGSGVPDRFSGSGSGTDFTLKISRVEAEDVGVYYCMQLTHWPYTFGQGTKLEIK
modifications: human IgG4 constant region; heavy chain variable region; light chain variable region
With B1 the “Tumor volume (mm^3)/Mean ± SEM Day 17” value [1, 3] was 1195 ± 252 mm^3, the “Tumor volume (mm^3)/Mean ± SEM Day 17” value [1, 4] was 1302 ± 202 mm^3 and the “Tumor volume (mm^3)/Mean ± SEM Day 0” value [1, 5] was 77 ± 2 mm^3. The “Tumor volume (mm^3)/Mean ± SEM Day 0” value [1, 6] was 77 ± 2 mm^3, the “Tumor weight (g) Mean ± SEM” value ([1]; Day 17, Antibody 2E5 1 mg/kg, Lenvatinib mesylate 1 mg/kg (G2, G4, G5)) was 0.909 ± 0.186 g and the “Tumor weight (g) Mean ± SEM” value ([1]; Day 17, Antibody 2E5 2 mg/kg, Lenvatinib mesylate 1 mg/kg (G3, G6)) was 1.080 ± 0.190 g. The “Tumor growth inhibition (%)” value ([1]; by tumor volume, Day 17, vs hIgG4 control, Antibody 2E5 1 mg/kg, Lenvatinib mesylate 1 mg/kg (G2, G4, G5)) was 56.4%, the “Tumor growth inhibition (%)” value ([1]; by tumor volume, Day 17, vs hIgG4 control, Antibody 2E5 2 mg/kg, Lenvatinib mesylate 1 mg/kg (G3, G6)) was 52.2% and the “Tumor growth inhibition (%)” value ([1]; tumor weight analysis (Table 21), Day 17, vs IgG4 control, Antibody 2E5 1 mg/kg, Lenvatinib mesylate 1 mg/kg (G2, G4, G5)) was 56.4%. For the same molecule, the “Tumor growth inhibition (%)” value ([1]; tumor weight analysis (Table 21), Day 17, vs IgG4 control, Antibody 2E5 2 mg/kg, Lenvatinib mesylate 1 mg/kg (G3, G6)) was 48.2%, the “Weight (g)/Mean ± SEM Day 17” value [2, 3] was 28.6 ± 0.7 g and the “Weight (g)/Mean ± SEM Day 17” value [2, 4] was 27.8 ± 0.7 g. The “Weight (g)/Mean ± SEM Day 0” value [2, 3] was 24.9 ± 0.7 g, the “Weight (g)/Mean ± SEM Day 0” value [2, 4] was 25.0 ± 0.6 g and the “Weight (g) Changes” value [2, 5] was “+3.7 g”. The “Weight (g) Changes” value [2, 6] was “+2.8 g”.
